{"source": "paper PMC2119167", "about": "(The Journal of Experimental Medicine, 1992)", "proteins": {"B1": {"name": "platelet membrane GMP-140 (P-selectin) (natural protein)", "chain": "WTYHYSTKAYSWNISRKYCQNRYTDLVAIQNKNEIDYLNKVLPYYSSYYWIGIRKNNKTWTWVGTKKALTNEAENWADNEPNNKRNNEDCVEIYIKSPSAPGKWNDEHCLKKKHALCYTASCQDMSCSKQGECLETIGNYTCSCYPGFYGPECEYVRECGELELPQHVLMNCSHPLGNFSFNSQCSFHCTDGYQVNGPSKLECLASGIWTNKPPQCLAAQCPPLKIPERGNMTCLHSAKAFQHQSSCSFSCEEGFALVGPEVVQCTASGVWTAPAPVCKAVQCQHLEAPSEGTMDCVHPLTAFAYGSSCKFECQPGYRVRGLDMLRCIDSGHWSAPLPTCEAISCEPLESPVHGSMDCSPSLRAFQYDTNCSFRCAEGFMLRGADIVRCDNLGQWTAPAPVCQALQCQDLPVPNEARVNCSHPFGAFRYQSVCSFTCNEGLLLVGASVLQCLATGNWNSVPPECQAIPCTPLLSPQNGTMTCVQPLGSSSYKSTCQFICDEGYSLSGPERLDCTRSGRWTDSPPMCEAIKCPELFAPEQGSLDCSDTRGEFNVGSTCHFSCDNGFKLEGPNNVECTTSGRWSATPPTCKGIASLPTPGVQCPALTTPGQGTMYCRHHPGTFGFNTTCYFGCNAGFTLIGDSTLSCRPSGQWTAVTPACRAVKCSELHVNKPIAMNCSNLWGNFSYGSICSFHCLEGQLLNGSAQTACQENGHWSTTVPTCQAGPLTIQEALTYFGGAVASTIGLIMGGTLLALLRKRFRQKDDGKCPLNPHSHLGTYGVFTNAAFDPSP"}}, "target": "the molecule itself", "assay": "SEC", "data": [{"protein": "B1", "values": [{"measurement": "stoichiometry N", "value": 4}]}]}
